Assays:
[1] = target: HA on intact H3N2 A/Aichi/2/1968 (X31) virions (Influenza A virus H3N2 A/Aichi/2/1968 …, UniProt P03437, strain); assay: ELISA
[2] = target: representative H4 HA (Influenza A virus H4, strain not named …, UniProt M1UPL4, strain); assay: ELISA

B1: FL-1066 IgG (human IgG1) (antibody, V domains shown)
VH: DVKLVESGEGLVKPGGSLKLSCAASGFTFSGYDMSWVRQTPEKRLEWVAYISSGGDYIYYADTVKGRFTISRDNARNTLYLQMSSLKSEDTAMYYCTRDSDYYGSRVWFAYWGQGTLVTVSG
VL: QAVVTQESALTTSPGETVTLTCRSSTGAVTTSNYANWVQEKPDHLFTGLIGGTNNRAPGVPARFSGSLIGDKAALTITGAQTEDEAIYFCALWFSNHWVFGGGTKLTVL
binding result [1]: binds
binding result [2]: binds

From publication PMC6748655 (Cell host & microbe, 2019)
